Measured values as given in patent US20240010735A1 (EISAI R AND D MANAGEMENT, published 2024).

Columns and labels:
Test in all cases: ELISA: Fc-His proteins (1 nM) captured on anti-6-His antibody, antibody A 10 µg/mL with human IgG 100 µg/mL, HRP anti-mouse IgG, OD450 as % of mouse EphA4-Fc-His
[1] = target: T1, mouse EphA1 extracellular region-Fc-His protein (mouse; human, UniProt Q60750 27-548)
T1 construct: extracellular domain; not shown: Fc region of human IgG1; histidine tag
T1 sequence (looked up): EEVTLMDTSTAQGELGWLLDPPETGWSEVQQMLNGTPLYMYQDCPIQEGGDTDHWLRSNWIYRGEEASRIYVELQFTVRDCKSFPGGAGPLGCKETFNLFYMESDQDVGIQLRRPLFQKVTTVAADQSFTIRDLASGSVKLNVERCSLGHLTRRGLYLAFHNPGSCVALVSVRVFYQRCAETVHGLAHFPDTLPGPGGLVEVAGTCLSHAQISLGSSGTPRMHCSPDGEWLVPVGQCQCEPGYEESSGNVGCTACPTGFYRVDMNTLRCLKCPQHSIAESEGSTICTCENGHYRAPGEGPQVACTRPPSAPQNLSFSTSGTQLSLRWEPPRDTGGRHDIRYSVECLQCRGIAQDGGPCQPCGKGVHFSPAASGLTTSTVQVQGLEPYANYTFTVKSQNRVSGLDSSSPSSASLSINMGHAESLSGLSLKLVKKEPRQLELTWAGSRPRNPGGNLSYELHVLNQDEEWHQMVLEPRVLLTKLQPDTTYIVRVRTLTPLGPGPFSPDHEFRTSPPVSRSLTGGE
Method: (§1) Rabbit anti-6-His antibodies (Bethyl Laboratories) were coated onto the wells of a 96-well plate (Nunc). After incubating at 4° C. overnight, the wells were blocked at room temperature for 1 hour by 1% Block Ace (DS Pharma Biomedical). After washing 3 times with 0.05% Tween 20/PBS (Thermo […]), each Eph receptor of mouse extracellular region-Fc-His protein (final concentration 1 nM) was seeded into each well, and incubated at room temperature for 1 hour. After washing 3 times, human IgG solution (100 μg/mL, Sigma) and antibody A (10 μg/mL) were supplemented to the wells, and incubated at room temperature for 1 hour. Horseradish peroxidase-labeled donkey anti-mouse IgG antibody (Jackson ImmunoResearch Laboratories) was added, and incubated at room temperature for 1 hour. After washing 3 times, TMBZ (3,3′,5,5′-tetramethylbenzidine, Sigma) solution was added to the wells, and upon confirmation of modest coloring, an equal amount of quenching solution (1 N H₂SO₄, Wako Pure Chemicals) was added to the wells, and absorbance at 450 nm was read by a microplate reader (PerkinElmer).

[2] = target: T2, mouse EphB3 extracellular region-Fc-His protein (mouse; human, UniProt P54754 30-554)
T2 construct: extracellular domain; not shown: Fc region of human IgG1; histidine tag
T2 sequence (looked up): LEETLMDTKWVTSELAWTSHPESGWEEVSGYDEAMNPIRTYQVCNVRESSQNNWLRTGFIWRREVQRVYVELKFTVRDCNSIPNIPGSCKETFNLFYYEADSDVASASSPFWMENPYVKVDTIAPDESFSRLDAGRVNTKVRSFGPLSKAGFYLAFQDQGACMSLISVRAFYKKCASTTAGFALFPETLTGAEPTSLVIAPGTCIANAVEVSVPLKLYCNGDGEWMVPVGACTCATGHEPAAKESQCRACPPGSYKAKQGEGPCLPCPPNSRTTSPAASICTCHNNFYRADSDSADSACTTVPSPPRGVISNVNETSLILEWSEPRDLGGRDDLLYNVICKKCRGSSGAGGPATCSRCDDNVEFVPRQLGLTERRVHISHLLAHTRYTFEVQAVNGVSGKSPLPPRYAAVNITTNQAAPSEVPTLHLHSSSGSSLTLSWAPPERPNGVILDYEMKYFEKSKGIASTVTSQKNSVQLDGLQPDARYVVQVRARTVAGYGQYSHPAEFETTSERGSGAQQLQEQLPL
Method: as §1

[3] = target: T3, mouse EphB6 extracellular region-Fc-His protein (mouse; human, UniProt O08644 33-591)
T3 construct: extracellular domain; not shown: Fc region of human IgG1; histidine tag
T3 sequence (looked up): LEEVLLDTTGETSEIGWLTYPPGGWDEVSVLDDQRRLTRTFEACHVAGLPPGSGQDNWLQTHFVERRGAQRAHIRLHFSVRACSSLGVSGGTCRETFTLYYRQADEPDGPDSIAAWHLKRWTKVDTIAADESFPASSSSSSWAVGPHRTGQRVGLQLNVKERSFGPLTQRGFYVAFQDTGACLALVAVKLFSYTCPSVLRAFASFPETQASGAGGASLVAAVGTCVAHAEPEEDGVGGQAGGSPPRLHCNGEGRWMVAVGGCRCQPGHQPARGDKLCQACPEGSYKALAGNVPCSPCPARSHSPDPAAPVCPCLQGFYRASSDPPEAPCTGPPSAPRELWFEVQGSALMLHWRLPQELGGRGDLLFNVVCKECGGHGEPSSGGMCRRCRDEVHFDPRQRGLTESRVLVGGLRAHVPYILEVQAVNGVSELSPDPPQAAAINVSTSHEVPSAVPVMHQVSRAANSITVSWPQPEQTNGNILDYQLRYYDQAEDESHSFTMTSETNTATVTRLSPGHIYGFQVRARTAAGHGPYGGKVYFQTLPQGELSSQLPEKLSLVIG
Method: as §1

Measured: binding result

B1: mouse anti-EphA4 monoclonal antibody (antibody A) (antibody, mouse IgG1, kappa, V domains shown)
VH: QVQLKQSGPSLVQPSQSLSITCTVSGFSLTRYGVHWVRQSPGKGLEWLGVIWRGGSTDYNAAFMSRLSITKDNSKSQVFFKMNSLQADDTAIYYCAKESLFGVYYDYGYYSMDYWGQGTSVTVSS
VL: DIQMTQSPSSLSASLGERVSLTCRASQEISGYLSWLQQKPDGTIKRLIYAASTLDSGVPKRFSGSRSGSDYSLTISSLESEDFADYYCLQYASYPLTFGAGTKLELKR
notes: purified from hybridoma supernatant
no binding (tested: 10 µg/mL): [1] | [2] | [3]
